Measured values as given in patent publication US20250361282A1 (Bayer, published 2025).

Columns and labels:
human NPRA [1] = target: T1, human NPRA (human, UniProt P16066 33-1061); assay: cell-based or functional assay
T1 sequence (looked up): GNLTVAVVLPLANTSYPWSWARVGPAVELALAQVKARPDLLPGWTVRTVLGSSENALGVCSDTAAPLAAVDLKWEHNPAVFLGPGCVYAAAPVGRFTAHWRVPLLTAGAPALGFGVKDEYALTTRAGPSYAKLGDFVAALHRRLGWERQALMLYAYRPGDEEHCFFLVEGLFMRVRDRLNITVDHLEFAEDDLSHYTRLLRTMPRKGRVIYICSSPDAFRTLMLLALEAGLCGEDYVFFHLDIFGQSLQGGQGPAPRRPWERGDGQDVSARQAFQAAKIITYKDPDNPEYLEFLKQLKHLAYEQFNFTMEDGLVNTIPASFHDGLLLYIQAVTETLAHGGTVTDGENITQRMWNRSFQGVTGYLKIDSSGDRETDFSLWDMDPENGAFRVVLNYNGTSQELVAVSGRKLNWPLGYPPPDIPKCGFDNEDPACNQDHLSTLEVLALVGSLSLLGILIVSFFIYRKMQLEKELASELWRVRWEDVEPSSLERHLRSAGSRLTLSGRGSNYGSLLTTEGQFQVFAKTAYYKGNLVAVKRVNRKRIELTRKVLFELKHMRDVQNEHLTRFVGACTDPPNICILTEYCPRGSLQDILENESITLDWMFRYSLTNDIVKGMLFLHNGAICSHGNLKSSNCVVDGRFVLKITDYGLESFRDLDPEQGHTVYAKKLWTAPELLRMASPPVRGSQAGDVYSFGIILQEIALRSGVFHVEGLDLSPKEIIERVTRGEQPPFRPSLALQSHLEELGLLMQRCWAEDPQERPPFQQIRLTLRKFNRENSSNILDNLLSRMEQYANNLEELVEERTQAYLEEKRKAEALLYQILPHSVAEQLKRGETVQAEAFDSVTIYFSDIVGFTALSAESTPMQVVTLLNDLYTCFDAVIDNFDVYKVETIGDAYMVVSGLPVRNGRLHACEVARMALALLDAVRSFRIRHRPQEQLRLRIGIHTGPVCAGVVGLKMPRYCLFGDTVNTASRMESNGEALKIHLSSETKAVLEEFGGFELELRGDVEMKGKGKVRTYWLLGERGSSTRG

human NPRA [2] = target: T2, human NPRA (human, UniProt P16066 33-1061); assay: cell-based or functional assay; remark: listed apart in the source
T2 sequence (looked up): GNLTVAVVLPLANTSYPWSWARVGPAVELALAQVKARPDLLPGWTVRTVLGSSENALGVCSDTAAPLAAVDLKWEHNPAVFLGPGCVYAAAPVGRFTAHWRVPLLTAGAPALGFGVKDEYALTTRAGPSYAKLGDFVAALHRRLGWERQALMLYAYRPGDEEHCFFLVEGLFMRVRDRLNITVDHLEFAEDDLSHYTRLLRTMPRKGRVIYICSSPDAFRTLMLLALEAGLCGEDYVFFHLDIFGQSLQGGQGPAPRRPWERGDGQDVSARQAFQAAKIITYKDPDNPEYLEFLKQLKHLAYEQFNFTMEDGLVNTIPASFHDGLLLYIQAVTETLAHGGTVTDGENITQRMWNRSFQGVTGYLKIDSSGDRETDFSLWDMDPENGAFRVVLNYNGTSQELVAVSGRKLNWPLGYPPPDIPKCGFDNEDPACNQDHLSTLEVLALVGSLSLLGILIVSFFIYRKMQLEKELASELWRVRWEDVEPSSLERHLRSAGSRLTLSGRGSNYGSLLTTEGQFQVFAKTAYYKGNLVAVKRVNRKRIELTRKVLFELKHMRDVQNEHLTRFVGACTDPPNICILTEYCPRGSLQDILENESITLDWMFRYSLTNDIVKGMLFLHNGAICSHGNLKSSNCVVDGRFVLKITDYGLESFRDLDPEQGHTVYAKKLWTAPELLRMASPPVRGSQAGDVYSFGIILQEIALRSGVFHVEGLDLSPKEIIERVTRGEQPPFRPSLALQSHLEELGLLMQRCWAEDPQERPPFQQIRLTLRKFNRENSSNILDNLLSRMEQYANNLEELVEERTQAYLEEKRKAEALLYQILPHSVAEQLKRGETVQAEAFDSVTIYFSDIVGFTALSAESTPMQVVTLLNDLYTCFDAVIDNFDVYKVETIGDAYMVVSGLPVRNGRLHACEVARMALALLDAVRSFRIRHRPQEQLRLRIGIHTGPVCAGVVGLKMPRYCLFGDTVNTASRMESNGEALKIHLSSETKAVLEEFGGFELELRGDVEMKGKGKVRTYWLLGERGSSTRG

B1: TPP-10845 (antibody, human IgG1, lambda)
heavy: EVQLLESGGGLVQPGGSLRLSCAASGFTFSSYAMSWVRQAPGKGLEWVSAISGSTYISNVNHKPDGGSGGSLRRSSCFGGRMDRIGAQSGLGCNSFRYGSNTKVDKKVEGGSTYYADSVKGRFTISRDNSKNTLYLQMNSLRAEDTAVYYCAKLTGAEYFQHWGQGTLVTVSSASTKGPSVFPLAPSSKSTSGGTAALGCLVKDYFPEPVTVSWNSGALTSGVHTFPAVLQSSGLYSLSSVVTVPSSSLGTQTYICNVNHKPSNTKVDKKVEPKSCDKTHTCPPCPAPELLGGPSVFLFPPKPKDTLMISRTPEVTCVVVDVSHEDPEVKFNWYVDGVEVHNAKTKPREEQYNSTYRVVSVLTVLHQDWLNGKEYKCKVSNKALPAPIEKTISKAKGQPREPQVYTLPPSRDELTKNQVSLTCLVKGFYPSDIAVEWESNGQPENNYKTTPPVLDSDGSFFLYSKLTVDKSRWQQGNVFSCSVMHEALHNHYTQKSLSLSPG
light: QSVLTQPPSVSGAPGQRVTISCTGSSSNIGAGYDVHWYQQLPGTAPKLLIYGNSNRPSGVPDRFSGSKSGTSASLAITGLQAEDEADYYCQSYDSSLSGVVFGGGTKLTVLGQPKAAPSVTLFPPSSEELQANKATLVCLISDFYPGAVTVAWKADSSPVKAGVETTTPSKQSNNKYAASSYLSLTPEQWKSHRSYSCQVTHEGSTVEKTVAPTECS
activity rcs (cGMP, hNPRA-CHO k1) (human NPRA [1]): 67%
average rel logEC50 (vs TPP-5661) (human NPRA [1]): -0.6
rel. logEC50 pcs 5 (vs TPP-5661, hNPRA-CHO k1) (human NPRA [1]): -0.4
rel. logEC50 pcs 6 (vs TPP-5661, hNPRA-CHO k1) (human NPRA [1]): -0.8

B2: TPP-13230 (antibody)
heavy: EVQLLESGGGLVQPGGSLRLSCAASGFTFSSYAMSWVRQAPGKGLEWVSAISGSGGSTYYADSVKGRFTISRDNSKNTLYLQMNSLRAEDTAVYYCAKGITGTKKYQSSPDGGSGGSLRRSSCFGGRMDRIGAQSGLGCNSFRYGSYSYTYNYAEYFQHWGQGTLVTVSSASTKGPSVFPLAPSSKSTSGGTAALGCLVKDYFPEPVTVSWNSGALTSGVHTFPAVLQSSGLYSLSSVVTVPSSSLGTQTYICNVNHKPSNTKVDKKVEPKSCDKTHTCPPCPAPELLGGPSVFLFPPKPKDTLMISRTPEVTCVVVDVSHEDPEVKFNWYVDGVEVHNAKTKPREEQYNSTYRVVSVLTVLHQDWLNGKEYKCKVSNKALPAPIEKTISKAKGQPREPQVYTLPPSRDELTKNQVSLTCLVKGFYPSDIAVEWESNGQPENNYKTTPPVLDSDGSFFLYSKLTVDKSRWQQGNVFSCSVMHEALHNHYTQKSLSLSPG
light: QSVLTQPPSVSGAPGQRVTISCTGSSSNIGAGYDVHWYQQLPGTAPKLLIYGNSNRPSGVPDRFSGSKSGTSASLAITGLQAEDEADYYCQSYDSSLSGVVFGGGTKLTVLGQPKAAPSVTLFPPSSEELQANKATLVCLISDFYPGAVTVAWKADSSPVKAGVETTTPSKQSNNKYAASSYLSLTPEQWKSHRSYSCQVTHEGSTVEKTVAPTECS
average rel logEC50 (human NPRA [2]): -0.3 delta logEC50 vs TPP-5661
rel. logEC50 pcs 9 (human NPRA [2]): -0.3 delta logEC50 vs TPP-5661

B3: TPP-10847 (antibody, human IgG1, lambda)
heavy: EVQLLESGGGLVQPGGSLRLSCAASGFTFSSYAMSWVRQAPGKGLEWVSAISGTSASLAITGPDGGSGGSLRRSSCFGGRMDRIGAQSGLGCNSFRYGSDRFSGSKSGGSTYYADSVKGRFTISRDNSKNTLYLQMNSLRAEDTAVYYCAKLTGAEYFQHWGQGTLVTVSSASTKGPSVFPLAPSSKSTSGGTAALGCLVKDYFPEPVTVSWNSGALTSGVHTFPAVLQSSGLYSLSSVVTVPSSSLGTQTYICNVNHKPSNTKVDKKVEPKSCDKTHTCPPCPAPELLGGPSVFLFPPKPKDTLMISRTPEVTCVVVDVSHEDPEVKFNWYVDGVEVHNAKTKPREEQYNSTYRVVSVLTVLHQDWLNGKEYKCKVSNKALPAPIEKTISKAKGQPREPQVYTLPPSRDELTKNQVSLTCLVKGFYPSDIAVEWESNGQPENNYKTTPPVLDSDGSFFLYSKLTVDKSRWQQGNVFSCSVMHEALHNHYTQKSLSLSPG
light: QSVLTQPPSVSGAPGQRVTISCTGSSSNIGAGYDVHWYQQLPGTAPKLLIYGNSNRPSGVPDRFSGSKSGTSASLAITGLQAEDEADYYCQSYDSSLSGVVFGGGTKLTVLGQPKAAPSVTLFPPSSEELQANKATLVCLISDFYPGAVTVAWKADSSPVKAGVETTTPSKQSNNKYAASSYLSLTPEQWKSHRSYSCQVTHEGSTVEKTVAPTECS
average rel logEC50 (vs TPP-5661) (human NPRA [1]): -0.5
rel. logEC50 pcs 5 (vs TPP-5661, hNPRA-CHO k1) (human NPRA [1]): 0
rel. logEC50 pcs 6 (vs TPP-5661, hNPRA-CHO k1) (human NPRA [1]): -0.9

B4: TPP-10290 (antibody)
heavy: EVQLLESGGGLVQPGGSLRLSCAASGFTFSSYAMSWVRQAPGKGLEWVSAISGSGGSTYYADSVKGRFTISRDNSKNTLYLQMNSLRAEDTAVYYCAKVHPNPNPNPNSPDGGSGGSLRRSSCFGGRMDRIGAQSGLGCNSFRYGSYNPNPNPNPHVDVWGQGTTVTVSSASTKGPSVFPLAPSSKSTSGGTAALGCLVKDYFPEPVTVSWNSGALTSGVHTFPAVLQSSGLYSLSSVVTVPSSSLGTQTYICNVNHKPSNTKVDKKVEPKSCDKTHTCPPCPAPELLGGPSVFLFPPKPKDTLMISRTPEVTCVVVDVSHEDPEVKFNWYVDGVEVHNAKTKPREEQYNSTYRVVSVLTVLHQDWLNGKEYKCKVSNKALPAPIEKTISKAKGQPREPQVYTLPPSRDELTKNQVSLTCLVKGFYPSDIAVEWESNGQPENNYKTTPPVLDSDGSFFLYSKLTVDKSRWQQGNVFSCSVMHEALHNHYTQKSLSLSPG
light: QSVLTQPPSVSGAPGQRVTISCTGSSSNIGAGYDVHWYQQLPGTAPKLLIYGNSNRPSGVPDRFSGSKSGTSASLAITGLQAEDEADYYCQSYDSSLSGVVFGGGTKLTVLGQPKAAPSVTLFPPSSEELQANKATLVCLISDFYPGAVTVAWKADSSPVKAGVETTTPSKQSNNKYAASSYLSLTPEQWKSHRSYSCQVTHEGSTVEKTVAPTECS
activity rcs (human NPRA [2]): 84%
average rel logEC50 (human NPRA [2]): -0.5 delta logEC50 vs TPP-5661
rel. logEC50 pcs 2 (human NPRA [2]): -0.8 delta logEC50 vs TPP-5661
rel. logEC50 pcs 3 (human NPRA [2]): -0.1 delta logEC50 vs TPP-5661

B5: TPP-10283 (antibody, human IgG1, lambda)
heavy: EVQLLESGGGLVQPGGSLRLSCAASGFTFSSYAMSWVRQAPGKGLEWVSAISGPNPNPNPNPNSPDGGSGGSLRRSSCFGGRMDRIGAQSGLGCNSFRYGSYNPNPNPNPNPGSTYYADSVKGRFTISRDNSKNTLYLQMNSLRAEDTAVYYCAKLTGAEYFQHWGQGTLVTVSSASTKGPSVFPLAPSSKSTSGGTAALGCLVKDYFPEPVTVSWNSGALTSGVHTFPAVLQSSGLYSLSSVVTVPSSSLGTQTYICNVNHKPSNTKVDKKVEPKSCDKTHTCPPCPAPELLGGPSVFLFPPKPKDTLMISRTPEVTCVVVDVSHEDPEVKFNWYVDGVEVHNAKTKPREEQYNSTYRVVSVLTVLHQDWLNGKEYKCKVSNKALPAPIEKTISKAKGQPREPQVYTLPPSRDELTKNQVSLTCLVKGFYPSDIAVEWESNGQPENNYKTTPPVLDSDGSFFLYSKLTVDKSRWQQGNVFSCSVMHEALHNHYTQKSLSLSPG
light: QSVLTQPPSVSGAPGQRVTISCTGSSSNIGAGYDVHWYQQLPGTAPKLLIYGNSNRPSGVPDRFSGSKSGTSASLAITGLQAEDEADYYCQSYDSSLSGVVFGGGTKLTVLGQPKAAPSVTLFPPSSEELQANKATLVCLISDFYPGAVTVAWKADSSPVKAGVETTTPSKQSNNKYAASSYLSLTPEQWKSHRSYSCQVTHEGSTVEKTVAPTECS
activity rcs (cGMP, hNPRA-CHO k1) (human NPRA [1]): 83%
average rel logEC50 (vs TPP-5661) (human NPRA [1]): -0.8
rel. activity rcs (delta logEC50 vs TPP-5661, hNPRA-CHO k1) (human NPRA [1]): -0.8
rel. logEC50 pcs 5 (vs TPP-5661, hNPRA-CHO k1) (human NPRA [1]): -0.8

B6: TPP-10282 (antibody, human IgG1, lambda)
heavy: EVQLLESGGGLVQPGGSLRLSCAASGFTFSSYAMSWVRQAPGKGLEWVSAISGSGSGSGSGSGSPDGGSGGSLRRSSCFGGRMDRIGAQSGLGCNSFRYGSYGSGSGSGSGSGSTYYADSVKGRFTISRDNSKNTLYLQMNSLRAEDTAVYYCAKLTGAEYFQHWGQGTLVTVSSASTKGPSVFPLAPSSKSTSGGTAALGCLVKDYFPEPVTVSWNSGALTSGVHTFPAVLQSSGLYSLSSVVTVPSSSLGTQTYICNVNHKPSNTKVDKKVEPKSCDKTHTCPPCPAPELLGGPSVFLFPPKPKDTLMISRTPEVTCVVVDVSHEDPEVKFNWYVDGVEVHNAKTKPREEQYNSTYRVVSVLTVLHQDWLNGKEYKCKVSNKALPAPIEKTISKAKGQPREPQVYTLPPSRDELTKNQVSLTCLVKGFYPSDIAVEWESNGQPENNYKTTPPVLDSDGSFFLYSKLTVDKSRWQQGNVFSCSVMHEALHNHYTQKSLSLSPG
light: QSVLTQPPSVSGAPGQRVTISCTGSSSNIGAGYDVHWYQQLPGTAPKLLIYGNSNRPSGVPDRFSGSKSGTSASLAITGLQAEDEADYYCQSYDSSLSGVVFGGGTKLTVLGQPKAAPSVTLFPPSSEELQANKATLVCLISDFYPGAVTVAWKADSSPVKAGVETTTPSKQSNNKYAASSYLSLTPEQWKSHRSYSCQVTHEGSTVEKTVAPTECS
activity rcs (cGMP, hNPRA-CHO k1) (human NPRA [1]): 30%
average rel logEC50 (vs TPP-5661) (human NPRA [1]): 0.1
rel. activity rcs (delta logEC50 vs TPP-5661, hNPRA-CHO k1) (human NPRA [1]): 0.3
rel. logEC50 pcs 1 (vs TPP-5661, hNPRA-CHO k1) (human NPRA [1]): 0.3
rel. logEC50 pcs 2 (vs TPP-5661, hNPRA-CHO k1) (human NPRA [1]): -0.2
rel. logEC50 pcs 4 (vs TPP-5661, hNPRA-CHO k1) (human NPRA [1]): 0.1
rel. logEC50 pcs 5 (vs TPP-5661, hNPRA-CHO k1) (human NPRA [1]): 0.2

B7: TPP-10355 (antibody, human IgG1, lambda)
heavy: not shown
light: QSVLTQPPSVSGAPGQRVTISCTGSSSNIGAGYDVHWYQQLPGTAPKLLIYGNSNRPSGVPDRFSGSKSGTSASLAITGLQAEDEADYYCAAWNPNPNPNPNPNGGSGGSLRRSSCFGGRMDRIGAQSGLGCNSFRYGSNPNPNPNPNPNVFGSGTKVTVLGQPKAAPSVTLFPPSSEELQANKATLVCLISDFYPGAVTVAWKADSSPVKAGVETTTPSKQSNNKYAASSYLSLTPEQWKSHRSYSCQVTHEGSTVEKTVAPTECS
activity rcs (human NPRA [2]): 94%
average rel logEC50 (human NPRA [2]): -0.2 delta logEC50 vs TPP-5661
rel. activity rcs (human NPRA [2]): 0.1 delta logEC50 vs TPP-5661
rel. logEC50 pcs 2 (human NPRA [2]): -0.6 delta logEC50 vs TPP-5661
rel. logEC50 pcs 3 (human NPRA [2]): 0.2 delta logEC50 vs TPP-5661
rel. logEC50 pcs 4 (human NPRA [2]): -0.3 delta logEC50 vs TPP-5661
